Biological target: T1, untagged full-length human 14-3-3ζ (human), P63104
T1 chain: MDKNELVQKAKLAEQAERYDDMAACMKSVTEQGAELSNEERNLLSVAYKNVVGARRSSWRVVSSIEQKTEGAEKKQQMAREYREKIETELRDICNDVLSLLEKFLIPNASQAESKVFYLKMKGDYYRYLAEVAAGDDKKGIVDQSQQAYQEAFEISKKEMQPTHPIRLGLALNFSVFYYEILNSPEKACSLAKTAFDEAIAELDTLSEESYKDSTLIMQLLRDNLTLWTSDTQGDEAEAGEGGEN
Assay: SEC
Settings: remark: other sources report otherwise

B1: untagged full-length human 14-3-3ζ, P63104 1-245 (natural protein)
chain: MDKNELVQKAKLAEQAERYDDMAACMKSVTEQGAELSNEERNLLSVAYKNVVGARRSSWRVVSSIEQKTEGAEKKQQMAREYREKIETELRDICNDVLSLLEKFLIPNASQAESKVFYLKMKGDYYRYLAEVAAGDDKKGIVDQSQQAYQEAFEISKKEMQPTHPIRLGLALNFSVFYYEILNSPEKACSLAKTAFDEAIAELDTLSEESYKDSTLIMQLLRDNLTLWTSDTQGDEAEAGEGGEN
stoichiometry N: 2
